Results taken from the Human Domainome abundance scans (Beltran et al. 2025).
± gives the uncertainty stated by the source.

B1: Retinoic acid receptor RXR-alpha, residues 132 to 208; numbered along this chain, P19793 (parent)
chain: KHICAICGDRSSGKHYGVYSCEGCKGFFKRTVRKDLTYTCRDNKDCLIDKRQRNRCQYCRYQKCLAMGMKREAVQEE

Variants of: B1
Experiment: abundance fitness (aPCA) (normalised: wild type 0, dead -1); higher = more abundant; growth selection in yeast, the domain comes from the species named
Details: Homo sapiens

KWICAICGDRSSGKHYGVYSCEGCKGFFKRTVRKDLTYTCRDNKDCLIDKRQRNRCQYCRYQKCLAMGMKREAVQEE [H2W] and KYICAICGDRSSGKHYGVYSCEGCKGFFKRTVRKDLTYTCRDNKDCLIDKRQRNRCQYCRYQKCLAMGMKREAVQEE [H2Y] are within error of each other in abundance fitness: -0.109 ± 0.044 for the first, -0.008 ± 0.067 for the second.

Compared with KHACAICGDRSSGKHYGVYSCEGCKGFFKRTVRKDLTYTCRDNKDCLIDKRQRNRCQYCRYQKCLAMGMKREAVQEE [I3A], KHCCAICGDRSSGKHYGVYSCEGCKGFFKRTVRKDLTYTCRDNKDCLIDKRQRNRCQYCRYQKCLAMGMKREAVQEE [I3C] is higher in abundance fitness: -0.229 ± 0.033 for the first, 0.022 ± 0.037 for the second.

Compared with KHDCAICGDRSSGKHYGVYSCEGCKGFFKRTVRKDLTYTCRDNKDCLIDKRQRNRCQYCRYQKCLAMGMKREAVQEE [I3D], KHECAICGDRSSGKHYGVYSCEGCKGFFKRTVRKDLTYTCRDNKDCLIDKRQRNRCQYCRYQKCLAMGMKREAVQEE [I3E] is lower in abundance fitness: -0.059 ± 0.035 for the first, -0.428 ± 0.066 for the second.

First: KHFCAICGDRSSGKHYGVYSCEGCKGFFKRTVRKDLTYTCRDNKDCLIDKRQRNRCQYCRYQKCLAMGMKREAVQEE [I3F]
Second: KHGCAICGDRSSGKHYGVYSCEGCKGFFKRTVRKDLTYTCRDNKDCLIDKRQRNRCQYCRYQKCLAMGMKREAVQEE [I3G]
The abundance fitness of the first is higher: -0.06 ± 0.04 for the first, -0.28 ± 0.043 for the second.

First: KHHCAICGDRSSGKHYGVYSCEGCKGFFKRTVRKDLTYTCRDNKDCLIDKRQRNRCQYCRYQKCLAMGMKREAVQEE [I3H]
Second: KHKCAICGDRSSGKHYGVYSCEGCKGFFKRTVRKDLTYTCRDNKDCLIDKRQRNRCQYCRYQKCLAMGMKREAVQEE [I3K]
The abundance fitness of the first is higher: 0.017 ± 0.031 for the first, -0.144 ± 0.048 for the second.

KHLCAICGDRSSGKHYGVYSCEGCKGFFKRTVRKDLTYTCRDNKDCLIDKRQRNRCQYCRYQKCLAMGMKREAVQEE [I3L] and KHNCAICGDRSSGKHYGVYSCEGCKGFFKRTVRKDLTYTCRDNKDCLIDKRQRNRCQYCRYQKCLAMGMKREAVQEE [I3N] are within error of each other in abundance fitness: 0.009 ± 0.029 for the first, -0.001 ± 0.033 for the second.

KHQCAICGDRSSGKHYGVYSCEGCKGFFKRTVRKDLTYTCRDNKDCLIDKRQRNRCQYCRYQKCLAMGMKREAVQEE [I3Q] and KHRCAICGDRSSGKHYGVYSCEGCKGFFKRTVRKDLTYTCRDNKDCLIDKRQRNRCQYCRYQKCLAMGMKREAVQEE [I3R] are within error of each other in abundance fitness: -0.211 ± 0.045 for the first, -0.218 ± 0.031 for the second.

Compared with KHSCAICGDRSSGKHYGVYSCEGCKGFFKRTVRKDLTYTCRDNKDCLIDKRQRNRCQYCRYQKCLAMGMKREAVQEE [I3S], KHTCAICGDRSSGKHYGVYSCEGCKGFFKRTVRKDLTYTCRDNKDCLIDKRQRNRCQYCRYQKCLAMGMKREAVQEE [I3T] is higher in abundance fitness: -0.127 ± 0.029 for the first, -0.008 ± 0.031 for the second.

KHVCAICGDRSSGKHYGVYSCEGCKGFFKRTVRKDLTYTCRDNKDCLIDKRQRNRCQYCRYQKCLAMGMKREAVQEE [I3V] and KHWCAICGDRSSGKHYGVYSCEGCKGFFKRTVRKDLTYTCRDNKDCLIDKRQRNRCQYCRYQKCLAMGMKREAVQEE [I3W] are within error of each other in abundance fitness: -0.3 ± 0.039 for the first, -0.404 ± 0.071 for the second.

Going from KHYCAICGDRSSGKHYGVYSCEGCKGFFKRTVRKDLTYTCRDNKDCLIDKRQRNRCQYCRYQKCLAMGMKREAVQEE [I3Y] to KHIAAICGDRSSGKHYGVYSCEGCKGFFKRTVRKDLTYTCRDNKDCLIDKRQRNRCQYCRYQKCLAMGMKREAVQEE [C4A], the abundance fitness falls from -0.058 ± 0.038 to -0.895 ± 0.063.

KHIDAICGDRSSGKHYGVYSCEGCKGFFKRTVRKDLTYTCRDNKDCLIDKRQRNRCQYCRYQKCLAMGMKREAVQEE [C4D] and KHIEAICGDRSSGKHYGVYSCEGCKGFFKRTVRKDLTYTCRDNKDCLIDKRQRNRCQYCRYQKCLAMGMKREAVQEE [C4E] are within error of each other in abundance fitness: -0.807 ± 0.11 for the first, -0.866 ± 0.11 for the second.

KHIFAICGDRSSGKHYGVYSCEGCKGFFKRTVRKDLTYTCRDNKDCLIDKRQRNRCQYCRYQKCLAMGMKREAVQEE [C4F] and KHIGAICGDRSSGKHYGVYSCEGCKGFFKRTVRKDLTYTCRDNKDCLIDKRQRNRCQYCRYQKCLAMGMKREAVQEE [C4G] are within error of each other in abundance fitness: -0.955 ± 0.11 for the first, -0.914 ± 0.059 for the second.

Compared with KHIHAICGDRSSGKHYGVYSCEGCKGFFKRTVRKDLTYTCRDNKDCLIDKRQRNRCQYCRYQKCLAMGMKREAVQEE [C4H], KHIKAICGDRSSGKHYGVYSCEGCKGFFKRTVRKDLTYTCRDNKDCLIDKRQRNRCQYCRYQKCLAMGMKREAVQEE [C4K] is lower in abundance fitness: -0.512 ± 0.073 for the first, -1.23 ± 0.2 for the second.

KHILAICGDRSSGKHYGVYSCEGCKGFFKRTVRKDLTYTCRDNKDCLIDKRQRNRCQYCRYQKCLAMGMKREAVQEE [C4L] and KHIMAICGDRSSGKHYGVYSCEGCKGFFKRTVRKDLTYTCRDNKDCLIDKRQRNRCQYCRYQKCLAMGMKREAVQEE [C4M] are within error of each other in abundance fitness: -0.999 ± 0.076 for the first, -1.08 ± 0.16 for the second.

KHINAICGDRSSGKHYGVYSCEGCKGFFKRTVRKDLTYTCRDNKDCLIDKRQRNRCQYCRYQKCLAMGMKREAVQEE [C4N] and KHIPAICGDRSSGKHYGVYSCEGCKGFFKRTVRKDLTYTCRDNKDCLIDKRQRNRCQYCRYQKCLAMGMKREAVQEE [C4P] are within error of each other in abundance fitness: -0.936 ± 0.12 for the first, -0.99 ± 0.1 for the second.

Compared with KHIQAICGDRSSGKHYGVYSCEGCKGFFKRTVRKDLTYTCRDNKDCLIDKRQRNRCQYCRYQKCLAMGMKREAVQEE [C4Q], KHIRAICGDRSSGKHYGVYSCEGCKGFFKRTVRKDLTYTCRDNKDCLIDKRQRNRCQYCRYQKCLAMGMKREAVQEE [C4R] is lower in abundance fitness: -0.614 ± 0.088 for the first, -1.02 ± 0.066 for the second.

First: KHISAICGDRSSGKHYGVYSCEGCKGFFKRTVRKDLTYTCRDNKDCLIDKRQRNRCQYCRYQKCLAMGMKREAVQEE [C4S]
Second: KHITAICGDRSSGKHYGVYSCEGCKGFFKRTVRKDLTYTCRDNKDCLIDKRQRNRCQYCRYQKCLAMGMKREAVQEE [C4T]
The abundance fitness of the first is lower: -1.03 ± 0.076 for the first, -0.757 ± 0.063 for the second.

KHIVAICGDRSSGKHYGVYSCEGCKGFFKRTVRKDLTYTCRDNKDCLIDKRQRNRCQYCRYQKCLAMGMKREAVQEE [C4V] gave an abundance fitness of -1.03 ± 0.086.
